In article PMC10458530, “Synthesis and Evaluation of ePSMA-DM1: A New Theranostic Small-Molecule Drug Conjugate (T-SMDC) for Prostate Cancer” (Pharmaceuticals, 2023):
Read-outs that look alike come from different tables or passages of the source. Non-standard residues stand in square brackets, D forms with d. Residues, ends and D or L forms follow the SMILES beside them. *: point of attachment. Propanoyl(3-SS-DM1) = COc1cc2cc(c1Cl)N(C)C(=O)C[C@H](OC(=O)[C@H](C)N(C)C(=O)CCSSCCC(=O)*)[C@]1(C)O[C@H]1[C@H](C)[C@@H]1C[C@@](O)(NC(=O)O1)[C@H](OC)/C=C/C=C(\C)C2; DOTA = O=C(O)CN1CCN(CC(=O)O)CCN(CC(=O)*)CCN(CC(=O)O)CC1; EuK = O=C(O)CC[C@H](NC(=O)N[C@@H](CCCCN*)C(=O)O)C(=O)O; Sta = CC(C)C[C@H](N)[C@@H](O)CC(=O)O; Ahx = NCCCCCC(=O)O

Experiments:
[1] = LogD7.4 by shake-flask method; type: physicochemical; conditions: PBS pH 7.4/n-octanol
Procedure: The distribution coefficients (LogD7.4 values) were determined by the shake-flask method, in which 2 μL (~0.5 MBq) of [^111In]In-ePSMA-DM1 was added to an Eppendorf tube containing 1 mL of PBS (0.01 M, pH 7.4)/n-octanol (v/v, 1:1). After vigorous vortexing, the solution was centrifuged at 2500 g for 3 min for phase separation. The n-octanol phase was separated from the PBS phase into a new Eppendorf tube and centrifuged for 15 min. Samples (3 × 10 μL) of the two phases were taken out and measured in the γ-counter. LogD7.4 values were calculated by using the following equation: LogD7.4 = log [(counts in octanol phase)/(counts in aqueous phase)] and the experiment was performed in triplicate.

[2] = Ex vivo biodistribution; type: in vivo, mouse; conditions: male, mouse, intravenous, total radioactivity; for tissue uptake at 1 h: 1 h p.i.; for tissue uptake at 4 h: 4 h p.i.; for tissue uptake at 24 h: 24 h p.i.
Procedure: Animal experiments were performed using male BALB/c nude mice (8–10 weeks old; Janvier Labs, Le Genest-Saint-Isle, France). Animals were housed in individually ventilated cages (Blue line IVC, 2 mice per cage) under sterile standard conditions with cage enrichments present and free access to animal chow (Sniff GmbH, Soest, Germany) and water. They were acclimated for 1 week prior to experiments. Mice were subcutaneously inoculated with 4.0 × 10^6 LS174T cells in the right flank diluted in 100 μL of cell suspension […]. The average tumor volume size per group (n = 4) was of 206.2 ± 7.9 mm^3 (average weight of 105.8 ± 7.3 mg) after non-blinded grouping to enable homogenous tumor size distribution. [^111In]In-ePSMA-DM1 was injected intravenously via the tail vein. All experiments were approved by the institutional Animal Welfare Committee and were conducted in accordance to the guidelines of the Revised Dutch Act on Animal Experimentation (WOD).
Mice were intravenously injected with ~1 nmol of [^111In]In-ePSMA-DM1 (5 MBq). Mice (n = 4/timepoint) were euthanized by cervical dislocation at 1, 4 and 24 h p.i. A block group (co-injection of 50 nmol of PSMA-617) was included, and mice were euthanized at 4 h p.i. Organs (blood, heart, lungs, liver, spleen, stomach, intestines, pancreas, kidneys, muscle, skin, bone and prostate) and the tumors were collected in pre-weighed tubes, weighed after organ collection, and measured in the γ-counter, for which the calibration factor was determined by measuring different known activities of In-111. Activity was corrected for decay, and uptake was expressed as percentage of the injected dose per gram of the tissue (% ID/g). The biological half-lives in tissues of [^111In]In-ePSMA-DM1 were determined using a one-phase decay algorithm in GraphPad Prism 9.0 (GraphPad Software, Boston, MA, USA).

[3] = BALB/c nude (BALB/c nu/nu), blood, 1 nmol, read-out: uptake in blood
[4] = BALB/c nude (BALB/c nu/nu), heart, 1 nmol, read-out: uptake in heart
[5] = BALB/c nude (BALB/c nu/nu), kidney, 1 nmol, read-out: uptake in kidney
[6] = BALB/c nude (BALB/c nu/nu), liver, 1 nmol, read-out: uptake in liver
[7] = BALB/c nude (BALB/c nu/nu), lung, 1 nmol, read-out: uptake in lung
[8] = BALB/c nude (BALB/c nu/nu), muscle, 1 nmol, read-out: uptake in muscle
[9] = BALB/c nude (BALB/c nu/nu), pancreas, 1 nmol, read-out: uptake in pancreas
[10] = BALB/c nude (BALB/c nu/nu), skin, 1 nmol, read-out: uptake in skin
[11] = BALB/c nude (BALB/c nu/nu), spleen, 1 nmol, read-out: uptake in spleen
[12] = BALB/c nude (BALB/c nu/nu), stomach, 1 nmol, read-out: uptake in stomach
[13] = BALB/c nude (BALB/c nu/nu), tumor, 1 nmol, read-out: uptake in tumor
[14] = BALB/c nude (nu/nu), bone, 1 nmol, read-out: uptake in bone
[15] = BALB/c nude (nu/nu), intestines, 1 nmol, read-out: uptake in intestines
[16] = BALB/c nude (nu/nu), prostate, 1 nmol, read-out: uptake in prostate

## COc1cc2cc(c1Cl)N(C)C(=O)C[C@H](OC(=O)[C@H](C)N(C)C(=O)CCSSCCC(=O)NCCCC[C@H](NC(=O)CN1CCN(CC(=O)O)CCN(CC(=O)O)CCN(CC(=O)O)CC1)C(=O)N[C@@H](CC(=O)O)C(=O)N[C@@H](Cc1ccccc1)C(=O)N[C@@H](CC(C)C)[C@@H](O)CC(=O)NCCCCCC(=O)NCCCC[C@H](NC(=O)N[C@@H](CCC(=O)O)C(=O)O)C(=O)O)[C@]1(C)O[C@H]1[C@H](C)[C@@H]1C[C@@](O)(NC(=O)O1)[C@H](OC)/C=C/C=C(\C)C2 [[^111In]In-ePSMA-DM1, metal not drawn] ({DOTA}-K(Propanoyl(3-SS-DM1))DF[Sta][Ahx]-EuK)
[1]
  logD: -2.47 ± 0.11
[2]; [3]
  tissue uptake at 1 h: 1.43 ± 0.04 %ID/g
  tissue uptake at 4 h: 0.37 ± 0.01 %ID/g
  tissue uptake at 24 h: 0.04 %ID/g
[2]; BALB/c nude (BALB/c nu/nu), blood, block (co-injection of PSMA-617), read-out: uptake in blood
  tissue uptake at 4 h: 0.3 ± 0.04 %ID/g
[2]; [4]
  tissue uptake at 1 h: 0.65 ± 0.1 %ID/g
  tissue uptake at 4 h: 0.23 ± 0.04 %ID/g
  tissue uptake at 24 h: 0.1 ± 0.02 %ID/g
[2]; BALB/c nude (BALB/c nu/nu), heart, block (co-injection of PSMA-617), read-out: uptake in heart
  tissue uptake at 4 h: 0.18 %ID/g
[2]; [5]
  tissue uptake at 1 h: 34 ± 2.54 %ID/g
  tissue uptake at 4 h: 31.6 ± 1.78 %ID/g
  tissue uptake at 24 h: 13.2 ± 0.95 %ID/g
[2]; BALB/c nude (BALB/c nu/nu), kidney, block (co-injection of PSMA-617), read-out: uptake in kidney
  tissue uptake at 4 h: 24 ± 1.46 %ID/g
[2]; [6]
  tissue uptake at 1 h: 0.68 %ID/g
  tissue uptake at 4 h: 0.63 ± 0.02 %ID/g
  tissue uptake at 24 h: 0.39 ± 0.04 %ID/g
[2]; BALB/c nude (BALB/c nu/nu), liver, block (co-injection of PSMA-617), read-out: uptake in liver
  tissue uptake at 4 h: 0.56 ± 0.05 %ID/g
[2]; [7]
  tissue uptake at 1 h: 1.34 ± 0.18 %ID/g
  tissue uptake at 4 h: 0.4 ± 0.03 %ID/g
  tissue uptake at 24 h: 0.25 ± 0.12 %ID/g
[2]; BALB/c nude (BALB/c nu/nu), lung, block (co-injection of PSMA-617), read-out: uptake in lung
  tissue uptake at 4 h: 0.51 ± 0.26 %ID/g
[2]; [8]
  tissue uptake at 1 h: 0.3 ± 0.06 %ID/g
  tissue uptake at 4 h: 0.21 ± 0.16 %ID/g
  tissue uptake at 24 h: 0.07 ± 0.01 %ID/g
[2]; BALB/c nude (BALB/c nu/nu), muscle, block (co-injection of PSMA-617), read-out: uptake in muscle
  tissue uptake at 4 h: 0.1 ± 0.01 %ID/g
[2]; [9]
  tissue uptake at 4 h: 0.17 ± 0.01 %ID/g
  tissue uptake at 24 h: 0.09 ± 0.01 %ID/g
[2]; BALB/c nude (BALB/c nu/nu), pancreas, block (co-injection of PSMA-617), read-out: uptake in pancreas
  tissue uptake at 4 h: 0.14 ± 0.02 %ID/g
[2]; [10]
  tissue uptake at 1 h: 1.37 ± 0.29 %ID/g
  tissue uptake at 4 h: 0.75 ± 0.12 %ID/g
[2]; [11]
  tissue uptake at 1 h: 1.32 ± 0.28 %ID/g
  tissue uptake at 4 h: 0.47 ± 0.08 %ID/g
  tissue uptake at 24 h: 0.27 ± 0.01 %ID/g
[2]; BALB/c nude (BALB/c nu/nu), spleen, block (co-injection of PSMA-617), read-out: uptake in spleen
  tissue uptake at 4 h: 0.32 ± 0.02 %ID/g
[2]; [12]
  tissue uptake at 1 h: 0.8 ± 0.61 %ID/g
  tissue uptake at 4 h: 0.47 ± 0.32 %ID/g
[2]; [13]
  tissue uptake at 4 h: 1.19 ± 0.22 %ID/g
  tissue uptake at 24 h: 0.5 ± 0.14 %ID/g
[2]; BALB/c nude (BALB/c nu/nu), tumor, block (co-injection of PSMA-617), read-out: uptake in tumor
  tissue uptake at 4 h: 0.8 ± 0.31 %ID/g
[2]; [14]
  tissue uptake at 1 h: 0.73 ± 0.27 %ID/g
  tissue uptake at 4 h: 0.41 ± 0.06 %ID/g
  tissue uptake at 24 h: 0.3 ± 0.03 %ID/g
[2]; BALB/c nude (nu/nu), bone, block (co-injection of PSMA-617), read-out: uptake in bone
  tissue uptake at 4 h: 0.33 ± 0.04 %ID/g
[2]; [15]
  tissue uptake at 1 h: 0.56 ± 0.19 %ID/g
  tissue uptake at 4 h: 0.45 ± 0.2 %ID/g
  tissue uptake at 24 h: 0.12 ± 0.03 %ID/g
[2]; BALB/c nude (nu/nu), intestines, block (co-injection of PSMA-617), read-out: uptake in intestines
  tissue uptake at 4 h: 0.56 ± 0.35 %ID/g
[2]; BALB/c nude (nu/nu), pancreas, 1 nmol, read-out: uptake in pancreas
  tissue uptake at 1 h: 0.43 ± 0.11 %ID/g
[2]; [16]
  tissue uptake at 1 h: 1.92 ± 0.87 %ID/g
  tissue uptake at 4 h: 0.46 ± 0.19 %ID/g
  tissue uptake at 24 h: 0.16 ± 0.03 %ID/g
[2]; BALB/c nude (nu/nu), prostate, block (co-injection of PSMA-617), read-out: uptake in prostate
  tissue uptake at 4 h: 0.4 ± 0.18 %ID/g
[2]; BALB/c nude (nu/nu), skin, 1 nmol, read-out: uptake in skin
  tissue uptake at 24 h: 0.44 ± 0.05 %ID/g
[2]; BALB/c nude (nu/nu), skin, block (co-injection of PSMA-617), read-out: uptake in skin
  tissue uptake at 4 h: 0.57 ± 0.19 %ID/g
[2]; BALB/c nude (nu/nu), stomach, 1 nmol, read-out: uptake in stomach
  tissue uptake at 24 h: 0.05 ± 0.02 %ID/g
[2]; BALB/c nude (nu/nu), stomach, block (co-injection of PSMA-617), read-out: uptake in stomach
  tissue uptake at 4 h: 0.3 ± 0.24 %ID/g
[2]; BALB/c nude (nu/nu), tumor, 1 nmol, read-out: uptake in tumor
  tissue uptake at 1 h: 2.39 ± 0.29 %ID/g
